In PMC3546842, “Using BAC transgenesis in zebrafish to identify regulatory sequences of the amyloid precursor protein gene in humans”:

T1: E4BP4-DBD (NFIL3 DNA-binding domain) (zebrafish, UniProt Q68EL6 18-164)
T1 sequence: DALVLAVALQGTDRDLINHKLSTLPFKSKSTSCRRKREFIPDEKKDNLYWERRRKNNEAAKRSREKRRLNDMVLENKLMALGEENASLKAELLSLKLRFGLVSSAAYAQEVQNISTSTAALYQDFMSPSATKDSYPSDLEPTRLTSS

B1: probe e (E4BP4 site E11) (dsDNA)
DNA 1: TGGTCAGTATTGTTATTACATAAGACATCAGCAAT
DNA 2: ATTGCTGATGTCTTATGTAATAACAATACTGACCA
B2: probe a (dsDNA)
DNA 1: AATAAATGTTACATAATCCAAAGTC
DNA 2: GACTTTGGATTATGTAACATTTATT
B3: probe b (dsDNA)
DNA 1: GTAAGCTTTTATGTAAGTATTTTG
DNA 2: CAAAATACTTACATAAAAGCTTAC
B4: probe c (dsDNA)
DNA 1: ATTAAATTTTATGTAAAAATATGT
DNA 2: ACATATTTTTACATAAAATTTAAT
B5: probe d (dsDNA)
DNA 1: ATTGGTTCATTATGTAACTTTCCCAT
DNA 2: ATGGGAAAGTTACATAATGAACCAAT

These binders were tested against T1, E4BP4-DBD (NFIL3 DNA-binding domain) (assay: EMSA; not given; EMSA performed as in an earlier cited paper (ref 25)). Conditions: protein: recombinant; tags: N-terminal His6; additional pET-30a(+) vector residues; chain copies: 2.

Binder	binding result
B1	binds
B2	binds
B3	binds
B4	binds
B5	binds
